Test results taken from the RNAGym collection of RNA variant scans (doi:10.1073/pnas.2313332121).

B1: TPR t1 (parent)
chain: GACCAAUCUGCCCUCAGAGCUCGAGAACAUCUUCGGAUGCAGAGGAGGCAGGCUUCGGUGGCGCGAUAGCGCCAACGUCCUCAACCUCCAAUGCAUCCCACCACAUGAUGAUGCCUGAAGAGCCUUGGUUUUUUG

Variants of: B1
Assay: polymerase ribozyme fitness, log enrichment relative to wild type (log ratio); higher = more active; in vitro selection for triplet polymerase activity
Summary of the method: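 Fitness compares each genotype's enrichment to that of the wild type on a logarithmic scale, averaging replicates with inverse-variance weights. The logarithm is base 2. Enrichment came from Illumina sequencing of input and output libraries after one triplicate round of in vitro selection, which included frozen incubation at −7 °C, of PCR-built, transcribed mutant libraries of each subunit of a heterodimeric triplet polymerase ribozyme. Only genotypes with ≥10 input reads and ≥1 read per output were kept.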

| Variant | polymerase ribozyme fitness (log ratio) |
| --- | --- |
| G93U C124G | 0.697 |
| C8G C20U A46U G52C A91G | -4.53 |
| G10C C13A G58A G71A C98U | -3.11 |
| G39U G61A C101U G117A A118G U125A | -0.872 |
| U32A G120C | -3.07 |
| A26G A29G C80G C86U A119G | -3.74 |
| C70A U87G | -1.73 |
| G17C C73U | -4.07 |
| C49A C124U | 0.812 |
| G25A G60U G117A | -7.98 |
| C101U U125A | -0.975 |
| C13G G42U | -2.84 |
| G77C C94U | -0.725 |
| C12U A26U G93U | -3.6 |
| C3G C70G C80U G128C | -1.99 |
| C73A U129C | -0.459 |
| U9A A100U | 0.21 |
| C11U U78C | -0.264 |
| G45C G69C U133A | -2.27 |
| C31U A46C G47U C98A G120C | -7.6 |
| A29U C49G C101G C124G | -3.93 |

| Variant | polymerase ribozyme fitness (log ratio) |
| --- | --- |
| C12U A50G G71U U130C | 0.0947 |
| U7C U14A A46U | -2.65 |
| G48U C99U | -3.34 |
| C56U G128A | -1.64 |
| A18G C49G U87A C89A U116C A118G | -4.85 |
| G63U A119G | -0.465 |
| G93U G117U | -3.63 |
| C13U U96A | -1.11 |
| U9A A83U | 0.0435 |
| C3G G120A C124G G128C | 0.839 |
| C12A A41U G48A G77U A83G | -2.82 |
| A29U G48A U92C C101U C114A | -5.72 |
| C12U G17C C97G C115G | -3.25 |
| C56A G60U | 0.0473 |
| C12G A37C A41U C79A | -3.13 |
| U14A G63C C82U U132A | -3.33 |
| C53U G58U | -0.0375 |
| C4A A121U U129G | 0.901 |
| G17C A29G C72A | -5.8 |
| A26G A29G A66U C72G U78A A118U | -3.89 |
| U9C U81A U116A G122U C124U | -0.783 |

| Variant | polymerase ribozyme fitness (log ratio) |
| --- | --- |
| U38A G39U G61U C89U A111C | -3.54 |
| C12A C85U | -1.04 |
| C89G A111C | -2.08 |
| G61A C98U G120U | -0.011 |
| C4U C64A A68C C79A G120U | -6.51 |
| C62A G113C | -3.31 |
| C53U C124A G128C | -0.772 |
| C8A G48U U59G A105C U112C G120A | -1.08 |
| C13G G71C A84G C104A U109G G117U C124A U130G | -6.92 |
| C70G C85A U106A U130A | -4.47 |
| A5U G25U C53U G69C C94U | -7.17 |
| C4A G51U C70A A84C G113U C114U G128A | -6.15 |
| A37U C97G U112C | -4.07 |
| A18C A27G A43U G44U G61A | -4.83 |
| A6U C72U U96C | -0.187 |
| U21A U59C G69U C123A G128C | -3.33 |
| A83U G120A U125A | 0.929 |
| G10A C70G U87A C123A | -4.27 |
| C4G G57C C89A C123A | -3.43 |
| A18U C94G A121C U126G | -5.02 |
| C4U C76G C114U U129A | -4.95 |

| Variant | polymerase ribozyme fitness (log ratio) |
| --- | --- |
| G36C U54G C73A | -2.09 |
| U54A C64U | -0.112 |
| C4U C70G | -2.23 |
| A90G U125G | -0.567 |
| C13U G19U G52U | -2.98 |
| C101G C114U | -3.32 |
| C98U C124G | -0.72 |
| G69U C99A | -3.23 |
| A6U G120A | 0.678 |
| C11A U109A | -6.59 |
| C104A A111U | -3.1 |
| C49U C53U | -0.552 |
| U55A U133A | -0.185 |
| C70A C89U | -2.29 |
| U112G U116C | -0.775 |
| A68G U129G | -4.32 |
| A18C G135U | -3.23 |
| C22U C64U | -3.81 |
| G10U G93A C99U | -4.71 |
| U7C C89U U109A | -4.17 |
